For 1 substance, stoichiometry N results are on record in paper PMC9600955.

This experiment addresses LapD2 purified in isolation (Streptococcus intermedius GC1825). As to the kind of experiment: crystal structure; LapD2 at 10 mg/mL, hanging drop, 0.2 M lithium sulfate, 0.1 M Tris-HCl pH 8.0, 30% PEG 4000; SAD phasing, native data to 2.20 Å.

For “LapD2 purified in isolation (natural protein)”, the stoichiometry N (in general, a count of units in the complex or per binding partner) was 2.
